Measured values taken from US20060148715A1, “Structural requirements for STAT3 binding and recruitment to phosphotyrosine ligands” (BAYLOR COLLEGE OF MEDICINE, priority 2004, published 2006).
Values belong to the molecule of their own block, whether it stands above or below them. Non-standard residues stand in square brackets, D forms with d. No end group written: not given here. *: point of attachment. d‑Biotin‑LC = N-terminal biotin (d-Biotin-LC), O=C(CCCC[C@@H]1SC[C@@H]2NC(=O)N[C@@H]21)NCCCCCC(=O)*; pY = N[C@@H](Cc1ccc(OP(=O)(O)O)cc1)C(=O)O

How the values were obtained:
[1] = target: T1, wild type Stat3 (Homo sapiens, UniProt P40763); experiment: Phosphopeptide affinity immunoblot (peptide pull-down); assay type: binding; details: purified wild type Stat3
T1 construct: made in house; host or cells: Sf9 insect cells (baculovirus, pFastBac1)
Method: (§1) NeutrAvidin agarose (40 μl; Pierce) was incubated with 10 μg of biotinylated peptide in 300 μl of Buffer A (20 mM HEPES pH 7.5, 20 mM NaF, 1 mM Na3VO4, 1 mM Na4P2O7, 1 mM EDTA, 1 mM EGTA, 20% glycerol, 0.05% NP-40, 1 mM DTT, 1 μg/ml leupeptin, 1 μg/ml aprotinin, 0.5 mM phenylmethylsulfonyl fluoride, 100 mM NaCl) at 4° C. for 2 h and washed with Buffer A 3 times. The NeutrAvidin-peptide complex was then mixed with His-tagged Stat3 protein (5 μg) in 1 ml of Buffer A (without NaCl and NP-40) at 4° C. for 2 h and washed thoroughly. Bound proteins were separated and immunoblotted using Stat3 monoclonal antibody (mAb).
Each peptide was incubated with equal amounts of purified wild type Stat3 protein in peptide pull-down assays (FIG. 1). NeutrAvidin agarose was incubated with the indicated biotinylated peptides (see Table 2 for sequence) or no peptide (CON) as control, washed thoroughly and mixed with identical amount of wild type Stat3. Bound proteins were separated by SDS-PAGE and immunoblotted using Stat3 mAb. Lane ST represents purified wild type Stat3 (0.6 μg) loaded directly onto the gel as positive control. […] Thus, Q at the +3 position of Y1068 phosphopeptide is required for Stat3 binding and appears to be as important for Stat3 binding as phosphorylation on tyrosine. […]

[2] = target: T1, wild type Stat3; experiment: Mirror resonance affinity assay (resonant mirror biosensor); assay type: binding
Method: (§2) Kinetics experiments were performed using an lasys Auto+ resonant mirror biosensor (Affinity Sensor, Paramus, N.J.) (see Sadowski et. al, 1986). Briefly, two-welled cuvettes coated on the bottom of each well with biotin were purchased from Affinity Sensor and prepared for immobilization of biotinylated peptides by coating each surface with 0.04 mg/ml NeutrAvidin (Pierce) and washing with PBS-T (20 mM Na Phosphate, 0.05% Tween-20). Biotinylated peptide (5 μg) was added into each well—experimental peptide to one well and control peptide to the other—and change in arc seconds monitored simultaneously in both wells using the biosensor until stable followed by washing with PBS-T. Real-time binding of Stat3 was conducted at 25° C. at a stir speed of 70 for 10 min starting at the lowest concentration of Stat3. The wells were washed out with three changes of 60 μl PBS-T, and dissociation was allowed to proceed for 5 min. Each well bottom was regenerated by washing with […] of 100 mM formic acid for 2 min and equilibrated with PBS-T for the next round of association assay. Data were collected automatically and analyzed with the FASTplot and GraFit software (see Sheinerman et. al, 2003).
(§3) Mirror resonance affinity assay. Two cells of a biotin-coated cuvette pretreated with saturating amounts of NeutrAvidin. One well of the cuvette was pretreated with biotinylated phosphopeptide based on Y1068 (pY1068, left panel), while the other well was pretreated with biotinylated non-phosphorylated peptide Y1068 (Y1068, right panel) as a control for non-specific binding. Wild type or mutated Stat3 protein was added in the concentrations indicated to each of the two cells and mirror resonance measurements recorded continuously for 10 min as shown.
To obtain quantitative kinetic information about the binding of Stat3 to G-CSFR Y704 and Y744 including association rates (kass), disassociation rates (kdiss) and dissociation equilibrium constants (KD), real-time affinity measurements using a mirror resonance biosensor were performed. The biosensor exploits surface plasmon resonance to measure in real time the alteration in the angle of a laser light reflected from a surface upon which binding events are occurring. Biotinylated peptides were immobilized onto the bottom surface of cuvette wells pre-coated with NeutrAvidin. The interaction of peptides with Stat3 added at different concentrations was measured in real time as altered deflection of a laser light striking the bottom surface of the cuvette; the alterations in the deflection angle measured in arc seconds was analyzed with GraFit software. […] The slightly lower KD for Y704 vs. Y744 is attributable to a faster association rate of Stat3 binding to this phosphododecapeptide.

[3] = target: T2, Stat3-3M (Homo sapiens, UniProt P40763, E638L/Y640F/Y657F); experiment: as above; assay type: binding
T2 construct: made in house; host or cells: Sf9 insect cells (baculovirus, pFastBac1)
Method: as §2, §3

[4] = target: T3, Stat3-6M (Homo sapiens, UniProt P40763, C687A/E638L/Q692L/S691A/Y640F/Y657F); experiment: as above; assay type: binding
T3 construct: made in house; host or cells: Sf9 insect cells (baculovirus, pFastBac1)
Method: as §2, §3

[5] = target: T4, Stat3-4M (Homo sapiens, UniProt P40763, C687A/Q692L/S691A/Y657F); experiment: as above; assay type: binding
T4 construct: made in house; host or cells: Sf9 insect cells (baculovirus, pFastBac1)
Method: as §2, §3

[6] = target: T4, Stat3-4M; experiment: Phosphopeptide affinity immunoblot (peptide pull-down); assay type: binding; details: compared with wild type Stat3
Method: as §1
NeutrAvidin agarose was incubated with the indicated biotinylated peptides (see Table 2 for exemplary sequences) or no peptide (CON) as control, washed thoroughly and mixed with identical amounts of wild type or mutant Stat3 proteins as indicated. Bound proteins were separated by SDS-PAGE and immunoblotted using Stat3 mAb. Lane ST represents purified wild type Stat3 (0.6 μg) loaded directly onto the gel as positive control.
Stat3 proteins in which mutations were introduced to alter side chains from charged or polar to non-polar within amino acid residues were predicted in each model to be critical for Stat3 binding (FIG. 1B). The recombinant Stat3 proteins were expressed in Sf9 insect cells and purified to equivalent levels using Ni-NTA resin (FIG. 1C).

[7] = target: T5, Stat3-3M+K591L (Homo sapiens, UniProt P40763, E638L/K591L/Y640F/Y657F); experiment: as above; assay type: binding
T5 construct: made in house; host or cells: Sf9 insect cells (baculovirus, pFastBac1)
Method: as §1
(§4) To test the pocket 1 component of the two models and to ensure that the peptide pull-down system was sufficiently sensitive to detect reduced binding of Stat3 containing mutations in pocket 2, either K591L or R609L was added to the 3M mutant to generate Stat3-3M+K591L and Stat3-3M+R609L.
(§5) To test the pocket 1 component of the two models and to ensure that our peptide pull-down system was sufficiently sensitive to detect reduced binding of Stat3 containing mutations in pocket 2, either K591L or R609L was added to the 3M mutant to generate Stat3-3M+K591L and Stat3-3M+R609L.

[8] = target: T6, Stat3-3M+R609L (Homo sapiens, UniProt P40763, E638L/R609L/Y640F/Y657F); experiment: as above; assay type: binding
T6 construct: made in house; host or cells: Sf9 insect cells (baculovirus, pFastBac1)
Method: as §1, §4, §5

[9] = target: T7, Stat3-E638P (Homo sapiens, UniProt P40763, E638P); experiment: as above; assay type: binding
T7 construct: made in house; host or cells: Sf9 insect cells (baculovirus)
Method: as §1
In FIG. 5C, NeutrAvidin agarose was incubated with the indicated biotinylated dodecapeptides (see Table 2 for sequence) or no peptide (CON) as control, washed thoroughly and mixed with wild type Stat3 protein. Bound proteins were separated by SDS-PAGE and immunoblotted using Stat3 mAb. Lane ST represents purified wild type Stat3 (0.6 μg) loaded directly onto the gel as a positive control.
To test the contribution of the E638 amide hydrogen to binding to G-CSFR Y704 and Y744 phosphododecapeptide, Stat3-E638P was generated by site-directed mutagenesis, which eliminated the amide hydrogen donor predicted to bind with oxygen within the +3 Q side chain.

[10] = target: Stat3-4M (human, UniProt P40763 1-770, limits assumed); experiment: peptide pull-down: biotinylated peptide on NeutrAvidin agarose, purified His-tagged Stat3 protein added, bound protein immunoblotted with Stat3 mAb
[11] = target: T8, wild type Stat3 (recombinant human Stat3alpha with N-terminal 6-histidine tag) (human, UniProt P40763 1-770); experiment: as above
T8 construct: Expressed in Sf9 cells and purified on Ni-NTA for peptide assays; expressed from pcDNA3.1 in 293T cells for the G-CSFR co-immunoprecipitation; also called WT; purified Stat3

[12] = target: T9, Stat3-E638P (human, UniProt P40763 1-770); experiment: as above
T9 construct: Produced in Sf9 cells; CD spectrum essentially identical to wild type

[13] = target: Stat3-3M (human, UniProt P40763 1-770, limits assumed); experiment: as above
[14] = target: Stat3-6M (human, UniProt P40763 1-770, limits assumed); experiment: as above
Stat3-6M (human, UniProt P40763 1-770, limits assumed), sequence (P40763 other isoform, or with tags, fused parts or gaps limits assumed): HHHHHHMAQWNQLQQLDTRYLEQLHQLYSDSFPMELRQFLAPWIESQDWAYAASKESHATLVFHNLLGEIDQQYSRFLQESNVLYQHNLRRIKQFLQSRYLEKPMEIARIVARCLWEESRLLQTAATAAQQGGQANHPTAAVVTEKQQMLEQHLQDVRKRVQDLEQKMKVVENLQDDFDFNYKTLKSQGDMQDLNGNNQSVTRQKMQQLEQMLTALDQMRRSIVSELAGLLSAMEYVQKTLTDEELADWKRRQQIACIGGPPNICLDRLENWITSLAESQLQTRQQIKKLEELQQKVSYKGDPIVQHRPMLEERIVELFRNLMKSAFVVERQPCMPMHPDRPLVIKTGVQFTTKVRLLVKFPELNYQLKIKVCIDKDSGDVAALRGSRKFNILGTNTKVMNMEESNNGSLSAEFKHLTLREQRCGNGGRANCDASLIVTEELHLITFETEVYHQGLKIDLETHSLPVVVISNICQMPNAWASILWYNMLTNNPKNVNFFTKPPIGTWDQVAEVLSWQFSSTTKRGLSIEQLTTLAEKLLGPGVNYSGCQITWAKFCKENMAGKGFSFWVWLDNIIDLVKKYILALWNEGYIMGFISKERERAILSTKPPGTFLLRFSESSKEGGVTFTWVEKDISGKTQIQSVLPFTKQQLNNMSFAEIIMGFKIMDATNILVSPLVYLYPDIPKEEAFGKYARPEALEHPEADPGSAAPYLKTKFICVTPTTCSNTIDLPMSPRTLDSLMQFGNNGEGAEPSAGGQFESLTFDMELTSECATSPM

T1 sequence (P40763 whole entry): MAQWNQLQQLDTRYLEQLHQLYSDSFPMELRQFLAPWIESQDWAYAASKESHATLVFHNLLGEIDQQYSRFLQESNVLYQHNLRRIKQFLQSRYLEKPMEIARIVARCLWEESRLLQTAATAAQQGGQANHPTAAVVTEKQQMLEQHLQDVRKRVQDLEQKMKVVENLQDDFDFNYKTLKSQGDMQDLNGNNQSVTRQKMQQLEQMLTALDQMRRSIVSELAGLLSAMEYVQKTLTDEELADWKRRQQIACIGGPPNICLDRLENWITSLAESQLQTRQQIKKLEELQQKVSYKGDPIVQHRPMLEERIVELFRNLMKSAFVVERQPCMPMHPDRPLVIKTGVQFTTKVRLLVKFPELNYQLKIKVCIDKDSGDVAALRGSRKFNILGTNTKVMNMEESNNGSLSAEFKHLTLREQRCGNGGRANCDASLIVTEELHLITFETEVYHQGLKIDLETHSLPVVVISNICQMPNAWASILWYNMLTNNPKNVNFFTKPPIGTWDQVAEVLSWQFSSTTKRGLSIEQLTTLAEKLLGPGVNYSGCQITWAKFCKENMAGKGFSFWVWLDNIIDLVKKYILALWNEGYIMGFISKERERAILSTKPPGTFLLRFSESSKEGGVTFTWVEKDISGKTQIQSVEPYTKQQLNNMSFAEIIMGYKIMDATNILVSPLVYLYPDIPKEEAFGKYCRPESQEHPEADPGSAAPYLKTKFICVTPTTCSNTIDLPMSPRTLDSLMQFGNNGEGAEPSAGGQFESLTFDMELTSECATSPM
T4 sequence (P40763 whole entry Y657F/C687A/S691A/Q692L): as the sequence (P40763 whole entry) above, with Y657F, C687A, S691A, Q692L counted along it
Stat3-4M (human, UniProt P40763 1-770, limits assumed), sequence (P40763 other isoform, or with tags, fused parts or gaps limits assumed): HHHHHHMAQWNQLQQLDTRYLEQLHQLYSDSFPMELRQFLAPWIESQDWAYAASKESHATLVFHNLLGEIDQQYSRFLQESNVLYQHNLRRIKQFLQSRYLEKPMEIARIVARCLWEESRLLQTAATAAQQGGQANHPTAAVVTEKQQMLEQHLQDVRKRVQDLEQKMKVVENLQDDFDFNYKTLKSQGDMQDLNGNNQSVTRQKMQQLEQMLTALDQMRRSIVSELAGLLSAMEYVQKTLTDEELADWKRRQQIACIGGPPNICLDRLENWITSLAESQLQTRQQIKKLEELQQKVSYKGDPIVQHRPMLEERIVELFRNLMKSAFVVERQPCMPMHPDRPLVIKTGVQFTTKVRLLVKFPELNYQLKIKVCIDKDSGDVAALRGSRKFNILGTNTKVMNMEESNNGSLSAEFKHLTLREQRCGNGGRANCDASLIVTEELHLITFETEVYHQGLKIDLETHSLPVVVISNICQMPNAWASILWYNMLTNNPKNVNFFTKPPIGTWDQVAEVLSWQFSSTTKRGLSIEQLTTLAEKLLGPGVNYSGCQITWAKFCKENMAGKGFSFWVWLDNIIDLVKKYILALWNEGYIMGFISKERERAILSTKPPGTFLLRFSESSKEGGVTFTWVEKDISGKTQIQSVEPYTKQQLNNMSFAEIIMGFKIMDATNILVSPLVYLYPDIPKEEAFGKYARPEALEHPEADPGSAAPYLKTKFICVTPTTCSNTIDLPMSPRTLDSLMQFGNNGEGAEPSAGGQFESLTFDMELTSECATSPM
T2 sequence (P40763 whole entry E638L/Y640F/Y657F): as the sequence (P40763 whole entry) above, with E638L, Y640F, Y657F counted along it
T5 sequence (P40763 whole entry K591L/E638L/Y640F/Y657F): as the sequence (P40763 whole entry) above, with K591L, E638L, Y640F, Y657F counted along it
T9 sequence (P40763 other isoform, or with tags, fused parts or gaps E638P E638P limits assumed): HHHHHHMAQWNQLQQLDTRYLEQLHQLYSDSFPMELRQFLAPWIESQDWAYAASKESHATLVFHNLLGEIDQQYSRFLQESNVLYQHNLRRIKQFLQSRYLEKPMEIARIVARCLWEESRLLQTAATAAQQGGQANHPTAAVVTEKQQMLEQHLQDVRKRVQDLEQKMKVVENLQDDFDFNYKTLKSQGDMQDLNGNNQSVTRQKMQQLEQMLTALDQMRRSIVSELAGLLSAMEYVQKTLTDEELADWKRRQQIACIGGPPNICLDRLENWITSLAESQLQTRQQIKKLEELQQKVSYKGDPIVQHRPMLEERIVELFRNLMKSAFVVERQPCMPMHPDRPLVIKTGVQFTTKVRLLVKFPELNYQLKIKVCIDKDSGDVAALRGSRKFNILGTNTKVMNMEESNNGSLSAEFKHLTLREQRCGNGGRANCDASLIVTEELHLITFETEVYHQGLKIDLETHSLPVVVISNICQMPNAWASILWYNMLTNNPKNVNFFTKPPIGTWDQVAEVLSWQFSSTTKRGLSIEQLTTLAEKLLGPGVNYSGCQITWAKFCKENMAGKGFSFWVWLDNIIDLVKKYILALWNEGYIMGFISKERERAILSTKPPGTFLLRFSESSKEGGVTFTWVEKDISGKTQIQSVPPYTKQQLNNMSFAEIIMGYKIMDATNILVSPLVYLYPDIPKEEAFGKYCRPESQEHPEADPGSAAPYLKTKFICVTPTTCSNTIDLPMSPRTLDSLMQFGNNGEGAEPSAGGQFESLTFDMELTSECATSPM
T7 sequence (P40763 whole entry E638P): as the sequence (P40763 whole entry) above, with E638P counted along it
Stat3-3M (human, UniProt P40763 1-770, limits assumed), sequence (P40763 other isoform, or with tags, fused parts or gaps limits assumed): as the sequence (P40763 other isoform, or with tags, fused parts or gaps E638P E638P limits assumed) above, with P644L, Y646F, Y663F counted along it
T6 sequence (P40763 whole entry R609L/E638L/Y640F/Y657F): as the sequence (P40763 whole entry) above, with R609L, E638L, Y640F, Y657F counted along it
T3 sequence (P40763 whole entry E638L/Y640F/Y657F/C687A/S691A/Q692L): as the sequence (P40763 whole entry) above, with E638L, Y640F, Y657F, C687A, S691A, Q692L counted along it
T8 sequence (P40763 other isoform, or with tags, fused parts or gaps limits assumed): as the sequence (P40763 other isoform, or with tags, fused parts or gaps E638P E638P limits assumed) above, with P644E counted along it

- Stat3 detected in peptide pull-down (Stat3 immunoblot) [1]: little to no Stat3 was detected
Molecule: LPVPEYINQSVP [unphosphorylated Y1068 dodecapeptide]

Molecule: CC[C@H](C)[C@H](NC(=O)[C@H](Cc1ccc(OP(=O)(O)O)cc1)NC(=O)[C@H](CCC(=O)O)NC(=O)[C@@H]1CCCN1C(=O)[C@@H](NC(=O)[C@@H]1CCCN1C(=O)[C@H](CC(C)C)NC(=O)CCCCCNC(=O)CCCC[C@@H]1SC[C@@H]2NC(=O)N[C@@H]21)C(C)C)C(=O)N[C@@H](CC(N)=O)C(=O)N[C@@H](CCC(N)=O)C(=O)N[C@@H](CO)C(=O)N[C@H](C(=O)N1CCC[C@H]1C(=O)O)C(C)C [Y1068 PDP, LPVPE(pY)INQSVP]
- Kd [2]: 223 nM
- Kd [3]: 177 nM
- Kd [4]: 249 ± 22 nM
- Kd [5]: 271 ± 48 nM

- level of Stat3-4M bound in peptide affinity immunoblot [6]: equal to or greater than wild type Stat3
- binding of Stat3-3M+K591L in peptide pull-down [7]: elimination of binding
- binding of Stat3-3M+R609L in peptide pull-down [8]: elimination of binding
- binding of Stat3-E638P in peptide affinity immunoblot [9]: no binding
Molecule: VQNPV(pY)HNQPLN (VQNPV[pY]HNQPLN) [Y1086 PDP]

- binding result [10]: no binding
- binding result [11]: no binding
- binding result [12]: no binding
- binding result [13]: no binding
- binding result [14]: no binding
Molecule: {d‑Biotin‑LC}-PGPGHYLRCDST [Y744 non-phosphorylated dodecapeptide (G-CSFR)]
